Tests used:
Conditions in all cases: Homo sapiens; call rule not given here
[1] = substrate: C[C@H](Cn1cnc2c(N)ncnc21)OCP(=O)(O)O; test: (§1) Activity of recombinant AK1 (unknown origin) assessed as ADP formation by spectroscopic pyruvate kinase/lactate dehydrogenase coupled assay
[2] = substrate: Nc1ncnc2c1ncn2-c1ccc(CO)o1; test: as §1
[3] = substrate: Nc1ncnc2c1ncn2-c1ccc(COCP(=O)(O)O)o1; test: as §1
[4] = substrate: Nc1ncnc2c1ncn2CCOCP(=O)(O)O; test: as §1
[5] = substrate: Nc1ncnc2c1ncn2[C@@H]1O[C@H](COP(=O)(O)O)[C@@H](O)[C@H]1O; test: as §1
[6] = substrate: Nc1ncnc2c1ncn2[C@H]1C[C@H](O)[C@@H](COP(=O)(O)O)O1; test: as §1
[7] = substrate: C[C@H](Cn1cnc2c(N)ncnc21)OCP(=O)(O)O; test: (§2) Ratio of Kcat to Km for recombinant AK1 (unknown origin)
[8] = substrate: Nc1ncnc2c1ncn2-c1ccc(CO)o1; test: as §2
[9] = substrate: Nc1ncnc2c1ncn2-c1ccc(COCP(=O)(O)O)o1; test: as §2
[10] = substrate: Nc1ncnc2c1ncn2CCOCP(=O)(O)O; test: as §2
[11] = substrate: Nc1ncnc2c1ncn2[C@@H]1O[C@H](COP(=O)(O)O)[C@@H](O)[C@H]1O; test: as §2
[12] = substrate: Nc1ncnc2c1ncn2[C@H]1C[C@H](O)[C@@H](COP(=O)(O)O)O1; test: as §2

B1: Adenylate kinase isoenzyme 1 (Homo sapiens), P00568 (protein)
chain: MEEKLKKTKIIFVVGGPGSGKGTQCEKIVQKYGYTHLSTGDLLRSEVSSGSARGKKLSEIMEKGQLVPLETVLDMLRDAMVAKVNTSKGFLIDGYPREVQQGEEFERRIGQPTLLLYVDAGPETMTQRLLKRGETSGRVDDNEETIKKRLETYYKATEPVIAFYEKRGIVRKVNAEGSVDSVFSQVCTHLDALK
- Km [1]: 3000 µM
- kcat [1]: 0.22 s⁻¹
- Km [2]: Not Active
- kcat [2]: Not Active
- Km [3]: Not Active
- kcat [3]: Not Active
- Km [4]: 6000 µM
- kcat [4]: 0.08 s⁻¹
- Km [5]: 175 µM
- kcat [5]: 500 s⁻¹
- Km [6]: 1500 µM
- kcat [6]: 240 s⁻¹
- kcat/Km [7]: 75 M⁻¹ s⁻¹
- kcat/Km [8]: Not Active
- kcat/Km [9]: Not Active
- kcat/Km [10]: 14 ×10⁶ /M/s
- kcat/Km [11]: 2.85 ×10⁶ /M/s
- kcat/Km [12]: 0.16 ×10⁶ /M/s

Reference: ChEMBL document CHEMBL3352481, “Synthesis of {[5-(adenin-9-yl)-2-furyl]methoxy}methyl phosphonic acid and evaluations against human adenylate kinases” (Bioorg Med Chem Lett, 2014)
